The values below come from publication PMC9177699, “Dynamic interplay between the periplasmic chaperone SurA and the BAM complex in outer membrane protein folding” (Communications Biology, 2022).

One assay addresses T1, SurA-WT (E. coli, UniProt P0ABZ6 21-428).
T1 construct: gene numbering including the signal peptide; also called wild-type SurA; source: E. coli BL21(DE3), purified (HisTrap with on-column 6 M Gdn-HCl wash, TEV cleavage, second HisTrap); not shown: His6, N-terminal, cleaved
T1 sequence: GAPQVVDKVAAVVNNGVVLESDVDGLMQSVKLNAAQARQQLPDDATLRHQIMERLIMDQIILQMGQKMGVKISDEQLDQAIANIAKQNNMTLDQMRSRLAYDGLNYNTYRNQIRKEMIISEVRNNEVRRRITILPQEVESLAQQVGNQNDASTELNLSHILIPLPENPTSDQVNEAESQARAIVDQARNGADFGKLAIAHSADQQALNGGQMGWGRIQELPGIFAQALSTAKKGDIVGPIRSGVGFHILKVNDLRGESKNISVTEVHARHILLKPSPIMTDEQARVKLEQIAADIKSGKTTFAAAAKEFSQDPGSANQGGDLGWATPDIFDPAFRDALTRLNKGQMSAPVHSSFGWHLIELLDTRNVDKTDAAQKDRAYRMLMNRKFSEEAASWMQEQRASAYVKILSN
The assay is described as follows: MST; 100 nM Alexa Fluor 488-labelled tOmpA, SurA or SurA domain deletion variant titrated 100 µM-3 nM, 0.8 M urea, 20 mM Tris-HCl, pH 8.0, 25 °C; Hill binding model; apparent Kd. Particulars: both partners purified.

For the next assay, the target named is T2, SurA-∆P1 (E. coli, UniProt P0ABZ6 21-428, removing residues 172–280).
T2 construct: gene numbering including the signal peptide; source: E. coli BL21(DE3), purified (HisTrap with on-column 6 M Gdn-HCl wash, TEV cleavage, second HisTrap); not shown: His6, N-terminal, cleaved
T2 sequence: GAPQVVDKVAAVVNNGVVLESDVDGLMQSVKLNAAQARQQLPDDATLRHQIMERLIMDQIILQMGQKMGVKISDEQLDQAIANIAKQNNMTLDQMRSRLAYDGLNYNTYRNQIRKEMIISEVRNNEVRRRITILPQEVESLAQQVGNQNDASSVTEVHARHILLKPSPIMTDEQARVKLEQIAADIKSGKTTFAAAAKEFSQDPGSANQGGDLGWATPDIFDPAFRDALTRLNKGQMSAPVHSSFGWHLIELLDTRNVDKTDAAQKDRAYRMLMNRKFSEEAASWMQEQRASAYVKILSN
The assay is described as above. Particulars: both partners purified.

Another assay concerns the target T3, SurA-∆P2 (E. coli, UniProt P0ABZ6 21-428, removing residues 281–389).
T3 construct: gene numbering including the signal peptide; source: E. coli BL21(DE3), purified (HisTrap with on-column 6 M Gdn-HCl wash, TEV cleavage, second HisTrap); not shown: His6, N-terminal, cleaved
T3 sequence: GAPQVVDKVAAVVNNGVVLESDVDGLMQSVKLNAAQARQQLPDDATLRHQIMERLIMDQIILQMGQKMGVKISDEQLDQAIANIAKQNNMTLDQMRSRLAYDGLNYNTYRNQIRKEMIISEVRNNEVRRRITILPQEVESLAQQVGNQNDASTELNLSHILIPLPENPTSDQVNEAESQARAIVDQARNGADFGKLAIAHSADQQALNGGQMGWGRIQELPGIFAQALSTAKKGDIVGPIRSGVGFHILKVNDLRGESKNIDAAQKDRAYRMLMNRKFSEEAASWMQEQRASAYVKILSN
Described as above. Particulars: both partners purified.

A further assay concerns the target T4, SurA-core (E. coli, UniProt P0ABZ6 21-428, removing residues 172–389).
T4 construct: gene numbering including the signal peptide; source: E. coli BL21(DE3), purified (HisTrap with on-column 6 M Gdn-HCl wash, TEV cleavage, second HisTrap); not shown: His6, N-terminal, cleaved
T4 sequence: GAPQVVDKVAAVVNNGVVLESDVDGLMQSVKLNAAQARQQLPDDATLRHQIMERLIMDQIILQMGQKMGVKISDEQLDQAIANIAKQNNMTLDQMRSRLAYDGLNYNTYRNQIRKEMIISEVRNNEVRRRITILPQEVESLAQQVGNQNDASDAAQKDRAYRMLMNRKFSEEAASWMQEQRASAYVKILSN
The assay is described as above. Particulars: both partners purified.

Assay [1] addresses β-barrel assembly machinery (BAM) complex, BamABCDE (E. coli, UniProt P0A940 21-810; P77774 20-392; P0A903 25-344; P0AC02 20-245; P0A937 20-113). The assay is described as follows: cell-based or functional assay.
The target in assay [2] is T5, BamB (as a subunit of the purified BAM complex) (E. coli, UniProt P77774 20-392).
T5 construct: BamB, E. coli, accessory lipoprotein of BAM, expressed from pJH114; Stood in the assays within the whole BAM complex, not alone
The assay is described as follows: HDX-MS; differential HDX; 8 µM BAM with 10 µM SurA-WT or SurA-core, or 8 µM SurA-WT with 10 µM BAM; 0.02% DDM, 10 mM potassium phosphate, pH 8.0; labelling at 4 °C for 0.5, 2, 30, 120 min. Particulars: both partners purified.

B1: Alexa Fluor 488-labelled tOmpA (domain or fragment)
chain: MCAPKDNTWYTGAKLGWSQYHDTGFINNNGPTHENQLGAGAFGGYQVNPYVGFEMGYDWLGRMPYKGSVENGAYKAQGVQLTAKLGYPITDDLDIYTRLGGMVWRADTKSNVYGKNHDTGVSPVFAGGVEYAITPEIATRLEYQWTNNIGDAHTIGTRPDNGMLSLGVSYRFG
modifications: Alexa Fluor 488 (C5 maleimide) on the added cysteine
notes: N-terminal Met and the Cys residue added immediately following it; unfolded: kept in 8 M urea and diluted to 0.8 M urea for the assay; also called Cys-tOmpA
In the case of B1, the Kd in the assay with SurA-WT came to 3.7 µM; with SurA-∆P1, 14.5 µM; with SurA-∆P2 it was 8.8 µM; with SurA-core it was 10.2 µM.

B2: SurA-core (SurA 21-428 without residues 172-389, His-tag cleaved) (domain or fragment, E. coli, UniProt P0ABZ6 21-428, looked up)
chain: APQVVDKVAAVVNNGVVLESDVDGLMQSVKLNAAQARQQLPDDATLRHQIMERLIMDQIILQMGQKMGVKISDEQLDQAIANIAKQNNMTLDQMRSRLAYDGLNYNTYRNQIRKEMIISEVRNNEVRRRITILPQEVESLAQQVGNQNDASDAAQKDRAYRMLMNRKFSEEAASWMQEQRASAYVKILSN
notes: numbers are the gene numbering (including the signal peptide); A G of the TEV site probably stays after cleavage (surmised); source: E. coli BL21(DE3), purified (HisTrap, on-column denaturation with 6 M Gdn-HCl, TEV cleavage, second HisTrap); not shown: His6, N-terminal, cleaved
Consider B2, for which, in assay [1], the “rate of BAM-catalysed folding of tOmpA into proteoliposomes (cold SDS–PAGE), with SurA-core against SurA-WT” value is ~3 fold. Further, the binding result in assay [2] is “binds”.
